Values joined by “and” are separate entries in the source; they are usually repeats but may differ in a detail not shown here. Equal entries are not always repeated. Numbered stars: 1 amine (or outer) side, 2 acyl side, 3 side chain; on linkers, the order of the positions; unused ones are H or OH. Bridge positions count the residues as written; N and C are the ends. Square brackets hold non-standard residues; d marks the D form. * marks the point of attachment. DOTA = O=C(O)CN1CCN(CC(=O)O)CCN(CC(=O)*)CCN(CC(=O)O)CC1; Oic = O=C(O)[C@@H]1C[C@@H]2CCCC[C@@H]2N1; mXylylene = c1cc(C[*:1])cc(C[*:2])c1; NMeF = CN[C@@H](Cc1ccccc1)C(=O)O; Nle = CCCC[C@H](N)C(=O)O; Phb = not defined here; Inp = O=C(O)C1CCNCC1; Mpa = O=C(O)CCS
B1: Ac-Met-[Cys(3MeBn)-Pro-Pro-Thr-Glu-phe-Cys]-Asp-His-Phe-Arg-Asp-NH2 (peptide)
peptide: Ac-MCPPTE[dF]CDHFRD-NH2
modifications: linker 2-8 via mXylylene
SMILES: CSCC[C@H](NC(C)=O)C(=O)N[C@H]1CSCc2cccc(c2)CSC[C@@H](C(=O)N[C@@H](CC(=O)O)C(=O)N[C@@H](Cc2c[nH]cn2)C(=O)N[C@@H](Cc2ccccc2)C(=O)N[C@@H](CCCNC(=N)N)C(=O)N[C@@H](CC(=O)O)C(N)=O)NC(=O)[C@@H](Cc2ccccc2)NC(=O)[C@H](CCC(=O)O)NC(=O)[C@H]([C@@H](C)O)NC(=O)[C@@H]2CCCN2C(=O)[C@@H]2CCCN2C1=O
notes: also called 3BP-3180
B2: Ac-Met-[Cys(3MeBn)-pro-Pro-Thr-Glu-Phe-Cys]-Asp-His-Phe-Arg-Asp-NH2 (peptide)
peptide: Ac-MC[dP]PTEFCDHFRD-NH2
modifications: linker 2-8 via mXylylene
SMILES: CSCC[C@H](NC(C)=O)C(=O)N[C@H]1CSCc2cccc(c2)CSC[C@@H](C(=O)N[C@@H](CC(=O)O)C(=O)N[C@@H](Cc2c[nH]cn2)C(=O)N[C@@H](Cc2ccccc2)C(=O)N[C@@H](CCCNC(=N)N)C(=O)N[C@@H](CC(=O)O)C(N)=O)NC(=O)[C@H](Cc2ccccc2)NC(=O)[C@H](CCC(=O)O)NC(=O)[C@H]([C@@H](C)O)NC(=O)[C@@H]2CCCN2C(=O)[C@H]2CCCN2C1=O
notes: also called 3BP-3176
B3: DOTA-Met-[Cys(3MeBn)-Pro-Pro-Thr-Glu-Phe-Cys]-Asp-His-Phe-Arg-Asp-NH2 (peptide)
peptide: {DOTA}-MCPPTEFCDHFRD-NH2
modifications: linker 2-8 via mXylylene
SMILES: CSCC[C@H](NC(=O)CN1CCN(CC(=O)O)CCN(CC(=O)O)CCN(CC(=O)O)CC1)C(=O)N[C@H]1CSCc2cccc(c2)CSC[C@@H](C(=O)N[C@@H](CC(=O)O)C(=O)N[C@@H](Cc2c[nH]cn2)C(=O)N[C@@H](Cc2ccccc2)C(=O)N[C@@H](CCCNC(=N)N)C(=O)N[C@@H](CC(=O)O)C(N)=O)NC(=O)[C@H](Cc2ccccc2)NC(=O)[C@H](CCC(=O)O)NC(=O)[C@H]([C@@H](C)O)NC(=O)[C@@H]2CCCN2C(=O)[C@@H]2CCCN2C1=O
B4: DOTA-[Cys(3MeBn)-Pro-Pro-Thr-Glu-Phe-Cys]-Asp-His-Phe-Arg-Asp-NH2 (peptide)
peptide: {DOTA}-CPPTEFCDHFRD-NH2
modifications: linker 1-7 via mXylylene
SMILES: C[C@@H](O)[C@@H]1NC(=O)[C@@H]2CCCN2C(=O)[C@@H]2CCCN2C(=O)[C@@H](NC(=O)CN2CCN(CC(=O)O)CCN(CC(=O)O)CCN(CC(=O)O)CC2)CSCc2cccc(c2)CSC[C@@H](C(=O)N[C@@H](CC(=O)O)C(=O)N[C@@H](Cc2c[nH]cn2)C(=O)N[C@@H](Cc2ccccc2)C(=O)N[C@@H](CCCNC(=N)N)C(=O)N[C@@H](CC(=O)O)C(N)=O)NC(=O)[C@H](Cc2ccccc2)NC(=O)[C@H](CCC(=O)O)NC1=O
notes: also called 3BP-3174
B5: Phb-[Cys(3MeBn)-Pro-Pro-Thr-Gln-Phe-Cys]-Asp-NH2 (peptide)
peptide: Phb-CPPTQFCD-NH2
modifications: linker 1-7 via mXylylene; reading uncertain; also: printed as Phb-[Cys(3MeBn)-Pro-Pro-Thr-Gln-Phe-Cys]-Asp-NH2
notes: also called 3BP-3418
B6: [3MeBn-Spa-Pro-Pro-Thr-Gln-Phe-Cys]-Asp-NH2 (peptide)
peptide: [Mpa]PPTQFCD-NH2
modifications: linker 1-7 via mXylylene
SMILES: C[C@@H](O)[C@@H]1NC(=O)[C@@H]2CCCN2C(=O)[C@@H]2CCCN2C(=O)CCSCc2cccc(c2)CSC[C@@H](C(=O)N[C@@H](CC(=O)O)C(N)=O)NC(=O)[C@H](Cc2ccccc2)NC(=O)[C@H](CCC(N)=O)NC1=O
notes: also called 3BP-3419
B7: Ac-Met-[Cys(3MeBn)-Pro-Pro-Thr-Glu-Phe-Cys]-Asp-His-Phe-NH2 (peptide)
peptide: Ac-MCPPTEFCDHF-NH2
modifications: linker 2-8 via mXylylene
SMILES: CSCC[C@H](NC(C)=O)C(=O)N[C@H]1CSCc2cccc(c2)CSC[C@@H](C(=O)N[C@@H](CC(=O)O)C(=O)N[C@@H](Cc2c[nH]cn2)C(=O)N[C@@H](Cc2ccccc2)C(N)=O)NC(=O)[C@H](Cc2ccccc2)NC(=O)[C@H](CCC(=O)O)NC(=O)[C@H]([C@@H](C)O)NC(=O)[C@@H]2CCCN2C(=O)[C@@H]2CCCN2C1=O
notes: also called 3BP-3199
B8: DOTA-Inp-[Cys(3MeBn)-Pro-Pro-Thr-Glu-Phe-Cys]-Asp-His-Nmf-Arg-Asp-NH2 (peptide)
peptide: {DOTA}-[Inp]CPPTEFCDH[NMeF]RD-NH2
modifications: linker 2-8 via mXylylene
SMILES: C[C@@H](O)[C@@H]1NC(=O)[C@@H]2CCCN2C(=O)[C@@H]2CCCN2C(=O)[C@@H](NC(=O)C2CCN(C(=O)CN3CCN(CC(=O)O)CCN(CC(=O)O)CCN(CC(=O)O)CC3)CC2)CSCc2cccc(c2)CSC[C@@H](C(=O)N[C@@H](CC(=O)O)C(=O)N[C@@H](Cc2c[nH]cn2)C(=O)N(C)[C@@H](Cc2ccccc2)C(=O)N[C@@H](CCCNC(=N)N)C(=O)N[C@@H](CC(=O)O)C(N)=O)NC(=O)[C@H](Cc2ccccc2)NC(=O)[C@H](CCC(=O)O)NC1=O
notes: also called 3BP-3265
B9: Ac-Met-[Cys(3MeBn)-Oic-Pro-Thr-Glu-Phe-Cys]-Asp-His-Phe-Arg-Asp-NH2 (peptide)
peptide: Ac-MC[Oic]PTEFCDHFRD-NH2
modifications: linker 2-8 via mXylylene
SMILES: CSCC[C@H](NC(C)=O)C(=O)N[C@H]1CSCc2cccc(c2)CSC[C@@H](C(=O)N[C@@H](CC(=O)O)C(=O)N[C@@H](Cc2c[nH]cn2)C(=O)N[C@@H](Cc2ccccc2)C(=O)N[C@@H](CCCNC(=N)N)C(=O)N[C@@H](CC(=O)O)C(N)=O)NC(=O)[C@H](Cc2ccccc2)NC(=O)[C@H](CCC(=O)O)NC(=O)[C@H]([C@@H](C)O)NC(=O)[C@@H]2CCCN2C(=O)[C@@H]2C[C@@H]3CCCC[C@@H]3N2C1=O
notes: also called 3BP-3216
B10: Ac-Met-[Cys(3MeBn)-Pro-Oic-Thr-Glu-Phe-Cys]-Asp-His-Phe-Arg-Asp-NH2 (peptide)
peptide: Ac-MCP[Oic]TEFCDHFRD-NH2
modifications: linker 2-8 via mXylylene
SMILES: CSCC[C@H](NC(C)=O)C(=O)N[C@H]1CSCc2cccc(c2)CSC[C@@H](C(=O)N[C@@H](CC(=O)O)C(=O)N[C@@H](Cc2c[nH]cn2)C(=O)N[C@@H](Cc2ccccc2)C(=O)N[C@@H](CCCNC(=N)N)C(=O)N[C@@H](CC(=O)O)C(N)=O)NC(=O)[C@H](Cc2ccccc2)NC(=O)[C@H](CCC(=O)O)NC(=O)[C@H]([C@@H](C)O)NC(=O)[C@@H]2C[C@@H]3CCCC[C@@H]3N2C(=O)[C@@H]2CCCN2C1=O
notes: also called 3BP-3217
B11: DOTA-Nle-[Cys(3MeBn)-Pro-Pro-Thr-Glu-Phe-Cys]-Asp-His-Phe-Arg-Asp-NH2 (peptide)
peptide: {DOTA}-[Nle]CPPTEFCDHFRD-NH2
modifications: linker 2-8 via mXylylene
SMILES: CCCC[C@H](NC(=O)CN1CCN(CC(=O)O)CCN(CC(=O)O)CCN(CC(=O)O)CC1)C(=O)N[C@H]1CSCc2cccc(c2)CSC[C@@H](C(=O)N[C@@H](CC(=O)O)C(=O)N[C@@H](Cc2c[nH]cn2)C(=O)N[C@@H](Cc2ccccc2)C(=O)N[C@@H](CCCNC(=N)N)C(=O)N[C@@H](CC(=O)O)C(N)=O)NC(=O)[C@H](Cc2ccccc2)NC(=O)[C@H](CCC(=O)O)NC(=O)[C@H]([C@@H](C)O)NC(=O)[C@@H]2CCCN2C(=O)[C@@H]2CCCN2C1=O
notes: also called 3BP-3088

Target: Recombinant human FAP (R&D systems, #3715-SE) (human, UniProt Q12884 26-760)
Assay: cell-based or functional assay

| pIC50 Category (Activity) | Binder |
| --- | --- |
| 6.1 pIC50 and 7 pIC50 | B1 |
| 6.1 pIC50 and 7 pIC50 | B2 |
| 6.1 pIC50 and 7 pIC50 | B3 |
| 6.1 pIC50 and 7 pIC50 | B4 |
| 6.1 pIC50 and 7 pIC50 | B5 |
| 6.1 pIC50 and 7 pIC50 | B6 |
| 7.1 pIC50 and 8 pIC50 | B7 |
| 6.1 pIC50 and 7 pIC50 | B8 |
| 6.1 pIC50 and 7 pIC50 | B9 |
| 6.1 pIC50 and 7 pIC50 | B10 |
| 6.1 pIC50 and 7 pIC50 | B11 |

Target: T1, fibroblast activation protein (FAP) on FAP-expressing human WI-38 fibroblasts (human, UniProt Q12884 1-760)
T1 construct: also called human FAP
Assay: competitive FACS, WI-38 cells, vs Cy5 tracer m3; C = pIC50 6.1-7.0

| pIC50 Category (FACS) | Binder |
| --- | --- |
| 6.1 pIC50 and 7 pIC50 | B1 |
| 6.1 pIC50 and 7 pIC50 | B2 |
| 6.1 pIC50 and 7 pIC50 | B3 |
| 6.1 pIC50 and 7 pIC50 | B4 |
| 6.1 pIC50 and 7 pIC50 | B5 |
| 6.1 pIC50 and 7 pIC50 | B6 |
| 6.1 pIC50 and 7 pIC50 | B7 |
| 6.1 pIC50 and 7 pIC50 | B8 |
| 6.1 pIC50 and 7 pIC50 | B9 |
| 6.1 pIC50 and 7 pIC50 | B10 |
| 6.1 pIC50 and 7 pIC50 | B11 |

Source: patent publication US20230212549A1 (3B PHARMACEUTICALS, published 2023)
